Measurements: publication PMC2723119, “A new cold-adapted β-D-galactosidase from the Antarctic Arthrobacter sp. 32c – gene cloning, overexpression, purification and properties” (BMC Microbiology, 2009)

Substrate: O=[N+]([O-])c1ccccc1O[C@@H]1O[C@H](CO)[C@H](O)[C@H](O)[C@H]1O
Assay: purified protein
Assay type: biochemical, Arthrobacter sp.
Settings: 50 °C (optimum; also at 10, 20, 30, 40, 55 °C), pH 6.5, 0.02 M potassium phosphate

B1: Arthrobacter sp. 32c β-D-galactosidase (Arthrobacter sp.) (protein)
chain: MGKRFPSGWFSPRVHPPRRQRSPMTNQATPGTASVWNNIEGIGFGGDYNPEQWPVSVRLEDLELMQEAGVNFLSVGIFSWALLEPAEGQYDFGWLDDVMDNLHGIGVKVALATATAAPPAWLVRKHPEILPVTADGTTLGPGSRRHYTPSSAVYRKYAAGITRVLAERYKDHPALALWHVDNELGCHVSEFYGEEDAAAFRLWLERRYGTIDALNAAWGTAFWSQHYGSFEEILPPGVAPSTLNPGQQLDFQRFNSWALMDYYRSLVAVLREVTPAVPCTTNLMASSATKSMDYFSWAKDLDVIANDHYLVAADPERHIELAFSADLTRGIAGGDPWILMEHSTSAVNWQPRNQPKMPGEMLRNSLAHVARGADAVMFFQWRQSFAGSEKFHSAMVPHGGRDTRVWREVVDLGAALQLLAPVRGSRVESRAAIVFDYEAWWASEIDSKPSIDVRYLDLLRAFHRSLFLRGVSVDMVHPSASLDGYDLVLVCTLYSVTDEAAANIAAAAAGGATVLVSYFSGITDEKDHVRLGGYPGAFRELLGVRVEEFHPLLAGSQLKLSDGTVSSIWSEHVHLDGAEAFQTFTGYPLEGVPSLTRRAVGTGAAWYLATFPDRDGIESLVDRLLAESGVSPVAEADAGVELTRRRSADGGSFLFAINHTRAAASVRASGTDVLSGERFTGTVEAGSVAVIAED
notes: full length, recombinant, no tag apparent (own stop codon in reverse primer); starts MGKRFPS (from primer)
Protein B1 has a Km of 2620 ± 210 µM, a kcat of 212.4 ± 1.67 s⁻¹ and a kcat/Km of 81100 ± 7760 M⁻¹ s⁻¹.
